{"source": "patent US20180369355A1", "about": "(TEXAS A AND M UNIVERSITY SYSTEM, published 2018)", "molecules": {"B1": {"name": "ClfA221-559 (other)", "chain": "VAADAPAAGTDITNQLTNVTVGIDSGTTVYPHQAGYVKLNYGFSVPNSAVKGDTFKITVPKELNLNGVTSTAKVPPIMAGDQVLANGVIDSDGNVIYTFTDYVNTKDDVKATLTMPAYIDPENVKKTGNVTLATGIGSTTANKTVLVDYEKYGKFYNLSIKGTIDQIDKTNNTYRQTIYVNPSGDNVIAPVLTGNLKPNTDSNALIDQQNTSIKVYKVDNAADLSESYFVNPENFEDVTNSVNITFPNPNQYKVEFNTPDDQITTPYIVVVNGHIDPNSKGDLALRSTLYGYNSNIIWRSMSWDNEVAFNNGSGSGDGIDKPVVPEQPDEPGEIEPIPE", "notes": "Recombinant, expressed in E. coli and purified by nickel chelate chromatography; the tag is not described; also called ClfA N2N3; ClfAN2N3"}, "B2": {"name": "GST-tagged Fg γ-peptide (other)", "chain": "{GST}-GEGQQHHLGGAKQAGDV", "notes": "domain: γ-peptide (carboxy terminal of the γ-chain); 'expressed and purified as described earlier'; also called GST-γ-peptide; GST tagged γ-peptide; not shown: GST tag"}, "B3": {"name": "ClfACC (other)", "chain": "GTDITNQLTNVTVGIDSGTTVYPHQAGYVKLNYGFSVPNSAVKGDTFKITVPKELNLNGVTSTAKVPPIMAGDQVLANGVIDSDGNVIYTFTDYVNTKCDVKATLTMPAYIDPENVKKTGNVTLATGIGSTTANKTVLVDYEKYGKFYNLSIKGTIDQIDKTNNTYRQTIYVNPSGDNVIAPVLTGNLKPNTDSNALIDQQNTSIKVYKVDNAADLSESYFVNPENFEDVTNSVNITFPNPNQYKVEFNTPDDQITTPYIVVVNGHIDPNSKGDLALRSTLYGYNSNIIWRSMSWDNEVAFNNGSGSGDGIDCPVVP", "modifications": "engineered disulfide bond between C327 and C541", "notes": "also called disulfide bond-closed ClfACC; closed form of ClfA N2N3"}}, "key": {"[1]": {"molecular_target": "ClfA221-559 (S. aureus strain Newman) (UniProt Q53653)", "assay": "SPR competition; 2 µM Tefibazumab with 1 µM ClfA221-559 over immobilized D-fragment (competitor: D-fragment)"}, "[2]": {"molecular_target": "ClfA221-559 (S. aureus strain Newman) (UniProt Q53653)", "assay": "SPR competition; Tefibazumab 0.1-2 µM with 1 µM ClfA221-559 over immobilized Fg D-fragment (competitor: D-fragment)"}, "[3]": {"molecular_target": "ClfA221-559 (S. aureus strain Newman) (UniProt Q53653)", "assay": "SPR competition: Tefibazumab (0.1 to 2 µM) mixed with 1 µM ClfA221-559, binding of ClfA221-559 to immobilized Fg D-fragment (Fg-D) is blocked"}, "[4]": {"molecular_target": "ClfA221-559 (S. aureus strain Newman) (UniProt Q53653)", "assay": "SPR competition: Tefibazumab (0.1 to 2 µM) mixed with 1 µM ClfA221-559, binding of ClfA221-559 to immobilized fibrinogen (Fg) is blocked"}, "[5]": {"molecular_target": "ClfA221-559 (S. aureus strain Newman) (UniProt Q53653)", "assay": "SPR competition: Tefibazumab mixed with 1 µM ClfA221-559, blocked ligand immobilized fibrinogen (Fg)"}, "[6]": {"molecular_target": "ClfA221-559 (S. aureus strain Newman) (UniProt Q53653)", "assay": "SPR competition; Tefibazumab 0.1-2 µM with 1 µM ClfA221-559 over immobilized human Fg (competitor: Fg)"}, "[7]": {"molecular_target": "ClfA221-559 (S. aureus strain Newman) (UniProt Q53653)", "assay": "SPR competition: Tefibazumab mixed with 1 µM ClfA221-559, blocked ligand immobilized Fg D-fragment (Fg-D)"}, "[8]": {"molecular_target": "ClfA221-559 (S. aureus strain Newman) (UniProt Q53653)", "assay": "SPR competition; 2 µM Tefibazumab with 1 µM ClfA221-559 over immobilized Fg (competitor: Fg)"}, "[9]": {"molecular_target": "ClfA221-559 (S. aureus strain Newman) (UniProt Q53653)", "assay": "SPR competition; 2 µM Tefibazumab with 1 µM ClfA221-559 over captured GST-tagged Fg γ-peptide (competitor: GST-γ-peptide)"}, "[10]": {"molecular_target": "T1, human fibrinogen (human, UniProt P02671 20-629; P02675 31-491; P02679 27-437)", "T1 construct": "also called Fg; intact Fg", "T1 sequence 1": "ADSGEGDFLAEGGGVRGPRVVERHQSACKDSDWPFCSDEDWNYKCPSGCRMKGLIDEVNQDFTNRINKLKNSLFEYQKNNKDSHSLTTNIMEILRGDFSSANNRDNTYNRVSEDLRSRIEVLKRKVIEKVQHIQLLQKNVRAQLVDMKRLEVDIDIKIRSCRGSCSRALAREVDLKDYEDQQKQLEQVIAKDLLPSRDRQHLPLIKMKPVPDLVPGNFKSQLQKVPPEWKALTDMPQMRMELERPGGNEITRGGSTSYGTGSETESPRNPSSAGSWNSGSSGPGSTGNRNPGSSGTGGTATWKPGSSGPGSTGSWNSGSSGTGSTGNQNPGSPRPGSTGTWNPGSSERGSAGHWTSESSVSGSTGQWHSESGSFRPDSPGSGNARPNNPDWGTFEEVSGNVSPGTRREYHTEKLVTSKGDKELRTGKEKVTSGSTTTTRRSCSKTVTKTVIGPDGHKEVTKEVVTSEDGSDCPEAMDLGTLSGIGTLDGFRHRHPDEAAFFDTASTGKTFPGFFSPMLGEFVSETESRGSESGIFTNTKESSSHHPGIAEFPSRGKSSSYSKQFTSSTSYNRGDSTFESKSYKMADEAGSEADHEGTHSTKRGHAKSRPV", "T1 sequence 2": "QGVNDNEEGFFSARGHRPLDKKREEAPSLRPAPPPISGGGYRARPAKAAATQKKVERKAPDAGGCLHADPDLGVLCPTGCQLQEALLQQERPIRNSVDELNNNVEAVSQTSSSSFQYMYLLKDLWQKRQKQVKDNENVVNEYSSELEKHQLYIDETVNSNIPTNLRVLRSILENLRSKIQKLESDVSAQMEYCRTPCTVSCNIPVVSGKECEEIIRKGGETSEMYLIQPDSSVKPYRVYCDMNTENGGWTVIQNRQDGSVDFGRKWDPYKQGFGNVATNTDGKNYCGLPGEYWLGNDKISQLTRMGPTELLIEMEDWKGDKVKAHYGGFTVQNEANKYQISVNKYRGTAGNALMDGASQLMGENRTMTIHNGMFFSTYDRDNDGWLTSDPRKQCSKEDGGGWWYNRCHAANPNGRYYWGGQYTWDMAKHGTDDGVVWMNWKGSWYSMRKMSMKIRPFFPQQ", "T1 sequence 3": "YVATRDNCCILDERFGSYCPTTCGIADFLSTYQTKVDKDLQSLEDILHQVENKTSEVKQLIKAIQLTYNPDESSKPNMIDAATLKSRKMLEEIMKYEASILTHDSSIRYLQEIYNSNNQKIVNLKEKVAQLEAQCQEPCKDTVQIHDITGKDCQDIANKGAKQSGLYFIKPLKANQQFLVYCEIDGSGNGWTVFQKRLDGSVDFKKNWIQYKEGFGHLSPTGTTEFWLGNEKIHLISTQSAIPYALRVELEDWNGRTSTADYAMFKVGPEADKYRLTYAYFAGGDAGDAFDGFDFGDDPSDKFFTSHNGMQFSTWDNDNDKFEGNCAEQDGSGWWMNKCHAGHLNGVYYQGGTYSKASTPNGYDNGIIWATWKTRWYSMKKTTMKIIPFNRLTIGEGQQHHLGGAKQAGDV", "assay": "SPR; immobilized Fg against GST-γ-peptide"}, "[11]": {"molecular_target": "T2, Fg D-fragment (UniProt P02671 130-216; P02675 164-491; P02679 114-437)", "T2 construct": "domain: D-fragment; also called D-domain", "T2 sequence 1": "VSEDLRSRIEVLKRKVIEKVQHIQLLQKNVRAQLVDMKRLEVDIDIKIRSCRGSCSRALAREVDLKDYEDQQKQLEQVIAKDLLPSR", "T2 sequence 2": "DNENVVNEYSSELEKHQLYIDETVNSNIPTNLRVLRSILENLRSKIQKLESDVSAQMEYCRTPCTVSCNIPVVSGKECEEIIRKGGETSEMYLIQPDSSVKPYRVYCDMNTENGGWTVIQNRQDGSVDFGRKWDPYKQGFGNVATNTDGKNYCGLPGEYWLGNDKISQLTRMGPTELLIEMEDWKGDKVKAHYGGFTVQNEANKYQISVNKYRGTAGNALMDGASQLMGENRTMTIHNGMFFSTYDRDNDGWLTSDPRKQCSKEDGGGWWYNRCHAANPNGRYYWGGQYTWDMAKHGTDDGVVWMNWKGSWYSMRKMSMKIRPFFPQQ", "T2 sequence 3": "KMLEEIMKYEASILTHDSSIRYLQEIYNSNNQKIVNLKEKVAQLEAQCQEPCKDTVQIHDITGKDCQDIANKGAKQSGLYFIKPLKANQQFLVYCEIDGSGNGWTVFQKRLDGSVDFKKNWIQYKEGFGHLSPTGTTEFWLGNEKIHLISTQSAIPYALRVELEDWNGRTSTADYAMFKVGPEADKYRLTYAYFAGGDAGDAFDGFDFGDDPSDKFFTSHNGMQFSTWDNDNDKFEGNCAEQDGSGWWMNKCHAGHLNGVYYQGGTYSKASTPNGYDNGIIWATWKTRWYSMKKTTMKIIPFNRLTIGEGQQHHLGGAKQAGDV", "assay": "SPR; immobilized Fg D-fragment against GST-γ-peptide"}, "[12]": {"molecular_target": "T2, Fg D-fragment", "assay": "SPR; ClfA221-559 over immobilized Fg D-fragment; immobilized Fg D-fragment"}, "[13]": {"molecular_target": "T1, human fibrinogen", "assay": "SPR; ClfA221-559 over immobilized intact Fg; immobilized intact Fg"}, "[14]": {"molecular_target": "B1", "assay": "SPR (Biacore), drawn table Ligand/analyte: GST-γ-peptide on the surface, ClfA221-559 as analyte"}, "[15]": {"molecular_target": "T3, ClfA370-559 (S. aureus, UniProt Q53653 370-559)", "T3 construct": "also called recombinant form of N3", "T3 sequence": "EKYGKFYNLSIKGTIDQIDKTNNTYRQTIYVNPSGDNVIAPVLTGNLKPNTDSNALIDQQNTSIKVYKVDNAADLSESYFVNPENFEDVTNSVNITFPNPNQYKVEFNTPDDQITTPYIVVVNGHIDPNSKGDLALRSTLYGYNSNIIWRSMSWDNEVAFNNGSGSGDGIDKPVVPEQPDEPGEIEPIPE", "assay": "SPR (Biacore), drawn table Ligand/analyte: GST-γ-peptide on the surface, ClfA N3 domain (ClfA370-559) as analyte"}, "[16]": {"molecular_target": "T1, human fibrinogen", "assay": "ITC; full-length Fg in the cell, ClfACC titrated in, 30 °C; full-length Fg in the cell, ClfACC titrated in"}, "[17]": {"molecular_target": "T1, human fibrinogen", "assay": "ITC; full-length Fg against the synthetic C-terminal γ-chain peptide"}, "[18]": {"molecular_target": "T1, human fibrinogen", "assay": "ITC, ClfACC titrated into fibrinogen in the cell; OneSites fit box"}, "[19]": {"molecular_target": "T1, human fibrinogen", "assay": "ITC, ClfACC titrated into fibrinogen in the cell; OneSites fit box, unit not given"}}, "note": "Where no end group is shown, it is not given here.", "data": [{"molecule": "Tefibazumab (antibody)", "values": [{"measurement": "percent inhibition", "setting": "[1]", "result": 70, "unit": "%"}, {"measurement": "IC50", "setting": "[2]", "result": 30, "unit": "nM"}, {"measurement": "IC50", "setting": "[3]", "result": 29.6, "unit": "nM"}, {"measurement": "IC50", "setting": "[4]", "result": 30.2, "unit": "nM"}, {"measurement": "IC50 (read off the curve)", "setting": "[5]", "result": 300, "unit": "nM"}, {"measurement": "IC50", "setting": "[6]", "result": 30, "unit": "nM"}, {"measurement": "IC50 (read off the curve)", "setting": "[7]", "result": 300, "unit": "nM"}, {"measurement": "percent inhibition", "setting": "[8]", "result": 60, "unit": "%"}, {"measurement": "percent inhibition", "setting": "[9]", "result": 25, "unit": "%"}]}, {"molecule": "B1", "values": [{"measurement": "fold difference in KD against the γ-peptide", "setting": "[10]", "result": "4 to 7", "unit": "fold"}, {"measurement": "fold difference in KD against the γ-peptide", "setting": "[11]", "result": "4 to 7", "unit": "fold"}, {"measurement": "Kd", "setting": "[12]", "result": 680, "unit": "nM"}, {"measurement": "Kd", "setting": "[13]", "result": 980, "unit": "nM"}]}, {"molecule": "B2", "values": [{"measurement": "Kd", "setting": "[14]", "result": 4300, "unit": "nM"}, {"measurement": "Kd", "setting": "[15]", "result": 54000, "unit": "nM"}]}, {"molecule": "B3", "values": [{"measurement": "Kd", "setting": "[16]", "result": 300, "unit": "nM"}, {"measurement": "fold higher affinity against the γ-chain peptide", "setting": "[17]", "result": 30, "unit": "fold"}, {"measurement": "N", "setting": "[18]", "result": 1.57}, {"measurement": "ΔH", "setting": "[19]", "result": -13300}]}]}
